Results as given in the domain aggregation screens of Martell et al. (2025).

Test: soluble fraction after stress (log2 fold change); higher = more stays soluble; pooled small domains, quantitative proteomics
Conditions: stress: 50 degC
Procedure, shortened: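 Pooled custom libraries of small protein domains were each held under stress at 50°C. The read-out, high-throughput quantitative proteomics, tracked how much of each protein stayed soluble. This is reported as a base-two log fold change used to indicate aggregation propensity. Higher values mean more protein remains in solution.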

| Sequence | soluble fraction (log2) |
| --- | --- |
| HMKPFVVVPIDQVRVGMFIQLDLGWMQHPFPVGSFRVASEAQIDTLRSLDLESVRYLPAKSDPAFQQP | -2.1 |
| HMQARDQNVDEGKALLEKEFSRLALENLDRDKLANAVNYPTRDDMYAAIGAGDLRVGQVLHQAQQLF | 0.142 |
| HMDQDIILHKVQPGDTLSKILLHYHSHQDRNKLQGLIAESMTANPFIKNPDLIYPGQLIQVPVPA | 0.05 |
| HMFTEPQKLVKRILNMLGHRYDDASIQARSDFQASNNYHKVQVKKKRESMEEYTAWLEEMYDAYRIN | -1.43 |
| HMLEAKQIQDNWESLIKLIEDNFTGERKENLLKMYTHFQDRMMFAPASSKEHFHNAFPGGYVEHVL | -0.293 |
| HMESIPDELLEAFKQDPAFKQAFYALTAGRQRGYIIHFSQPKQSQTRIGRIEKYKEQIFNGIGLN | -0.643 |
| HMFNLFPHLSVLRNITLAPQKVKGLNRSESNEIAMSLLERVGIPEQSDKFPSQLSGGQQQRVAIARALAM | -0.402 |
| HMHMSKKLADSISALRKKNGLSQEQLAEKIGISRQTVSNWERGIATPDVETLNLISKLFDEDLSVMING | 0.199 |
| HMSILYNAVKGTLVSSGALTADSWYKISSFGTASALPALKVGSIFKTPEGAGDAITLASGDSVYPLTLT | -1.26 |
| HMNPDDEMLLTYLTKLLVDKQFIVNSNDIFEYILRRVDRTYDGIYDIVSKLDVLSLEKKRQLTIPLIKEI | 0.0226 |
| HMKKAMIISTKRGTPAAELDKIIREFEAKGLSVTMIRGTDYNVFGLVGDTTVIDEKQVRANPYVENVQRV | 0.135 |
| HMSMPEVLSDRELEIFRMIGTGMSTGDIAKKLNISVNTIESHRKKIKDKLGIQKGSELVKAAVQWVSTQQ | -0.262 |
| HMSIPVLKDGTYESWGNEKVYKVGDRVMVGSNGYVAKWWNQDETPEKAIINPNDSPWRPMTESEIMEVLK | -0.0154 |
| HMTPTNILIVEDEKEIRRFVRTALESEGLRVFESETLQRGLIEAGTRKPDLIILDLGLPDGDGLSYIRDLR | -0.123 |
| HMRKDWTPGAFVEAFVNDTPATRSTILAKAVSAGLSRWAADNLLRTADNDGLMVRQGSGKRNEPFTYRRGP | -0.196 |
| HMDAMGAVGIARAFISAGERGGDISDGLEHMHGKLLRLSSLMYTRSGKKMAARRHELLSSFVQALEEEIK | -0.174 |
| HMEALPSNLRRLRLEAQLTLDRLGALSGVSRAMISKIERGASVPTATMLGKLAAALQVSLSQLL | -0.97 |
| HMYPQLIGFKVIDEDKGEVGVVKEVSESMHQILLTVMKGKKEILIPLAEEFITKVNRHKKELFMVLPDG | 0.502 |
| HMSLPAYIKISEVIARRINAGQILAGDRLPNERTMAVEFGVAVGTLRKALYHLQVRGLVTRKHGSGNYINK | -0.177 |
| HMENLTLVIGNKLKNIRNSRNLSLDDVAELTGVSKAMLGQIERGKSNPTVSTLWKISTGLRVSFSSFIDE | -2.2 |
| HMLFVKLSDAQRSMFGAKLARDARIQSEYAQKLPSENYEVFGKALADMLLDETHFKTFYPLLVEYGYTQPK | -0.406 |
| HMEVSLEDKMDYLTNYATTHKNFSFRNLLESSSGKIEVIVTFLAILELMKMGRINISQEHIFDDIIIESRI | -2.53 |
| HMEPVDYEALRKELMQKVMGLFTQSRDVGIQILSSFGAKKLSDVPDDKLVAFAASVDKALAG | -0.0404 |

| Sequence | soluble fraction (log2) |
| --- | --- |
| HMDRRSTTLQDIYTRIDAEEISEALELIPKLGEIEFEQNRAEIAEAAGVRPAVLDKLRKQAAKQENNKK | -0.0355 |
| HMGVSLKEIQENLSLIDDAAQKLASGQGTVDDAVGMGNAGKDIYDNIEGYVSSPKEFINGVLSSV | -0.104 |
| HMRRQRNPEIFDQLVNKFHFTFTQTQQLKQLIKRWHMLFPGKSLKSAIQGYKSAKEILTYINDSLDVVE | 0.124 |
| HMGLASEVKTEDVLNEEKYDFEPDLIGNNNEAIYQNKQTGSYVLFDRNQNKVTKVLSAGEVLNHSKYNE | -0.0697 |
| HMQGISGIERSLLDALAFEPAGLDALQARTGLDTPTLQALLMGLELQGHVARLPGSLFQRLVR | -0.523 |
| HMSSPTAKATGSSVNIRKSASTGAAVLKRVEKGTVLEAVSISDGWVKVKYSGVTGYVSADYVKVSGL | -0.354 |
| HMGSFDDAPDQLRQSILQLLAEGPLPPSAITERLNISREDATEALQQLLDEQRIFAVNGMLQLQPG | -0.0107 |
| HMKEAITVIGGKNNITFDASAQAEIGIYSMDGVQIQKKTISDNERIDLPAGMYVVTVKTGQANVSKVVVV | 0.00681 |
| HMQRADYLILYYIKMQAEQHPDSKVYLADLAAVMGLKVTELSKAVEKLQDNGFVAWKTDREAGRTYVELS | -1.31 |
| HMRRRTLRQGATGSDVHAVQRLLNVDGAGLRTDGIFGPATERAVIAYQRKHGLAVDGVVGRETWTALLG | -0.61 |
| HMSTKYSSNIISLVKGLMEEDQYKDLMGPPLKKEIIKKVESITDTFPYKFDKDDKEFIVKKVLISLRK | -1.29 |
| HMSPAETGIYHILVENGKPNRHGLDATNKNENWLRQFLITQNTRLEDVFLLLADDGGGIRFFKSQ | -0.498 |
| HMGSKDLPFSTFMSEIDKGNITSVDIRGNEIQGTFANGTKFRTYSPNYPNLVEKLNGKGVSITAGPV | 0.215 |
| HMEPEAKIDFILKAAQKRLGLYGYEKTTMQEIAADINMSKAALYYYFPDKESLFKAVVENEQEEYFH | -1.63 |
| HMGTYTSALDGIKGLGKKRKMLLLNTYKSIDVLKSVPLTELSQLIPREVAEALLTKLNRVDD | -0.118 |
| HMTLKVQLSEISKMVSLSYIAKKYFNKSQSWLSQRINGNTIHNKPAKFTSEELATLQFALKDIGNILNSTV | -2.8 |
| HMETLETYTSRLRQLEDITNNFKGVDKSFAIQAGREIRVMVVPEQVSDADMILMARDISKAIEAELEYPGQ | -0.0847 |
| HMTTKYVAVHESKDGYWTIASKPSSKEDAEAMLGGTPKNEVGKVVTLEEAKAHKKTLGEEYLYE | 0.272 |
| HMKTRNISGNHEAVWQAVRSRTQAGHPTTRAVIMDDLKAQGLNTQKFSRWLKKLVDDGSVYMDGDTIIMGK | -0.186 |
| HMVEYFDDENLDAFIGRESDSYTEKEIEQFREILYTMNQKEVADWNRSLTIRGINIPNDLKDEMIMMI | -0.438 |
| HMSHLTKKQEEVLLFIRDYYEEEGRSPSYSDIQHHFGLKSKSSVQDYIGYLKKAGFLQKSVGSRAIELV | -2.05 |
| HMATKEQIKRIYGLGAGLGIVGKDKDDMLHELIFSITGKDSVKQLDDSEFKAVQAELINRMKLA | 0.132 |
| HMEPLKLGDATGDGKINLQDVLEMQKHMAGILVLKGKFFTAADVNGNGKIELVDVLSVQKYLAGVTAEV | 0.00939 |

| Sequence | soluble fraction (log2) |
| --- | --- |
| HMDRMINYSPIVAKVPQDDYTTKVYNIPIYSELTVVDKISEPEPLIAPIYRFKYITPEDEEIEFDIPV | 0.0278 |
| HMSKRDDLLDQASEWLAKLDRDLTVVEERELKAWLGESAAHRETFIQMAKLWDKMESLSRLTDL | -0.397 |
| HMGEIHAQIPGLVSHLFVKEGNTVQVEQKLFILEAMKMENEIDSPIQGTVKRIHIATGSKVEKGDLIMEIS | -0.505 |
| HMSESGTFRAEAADAGRRLDVALAERLRLSRAAAQRLIAAGLVLVEGSPARKRQILHAGETVAWRAAPP | -0.127 |
| HMANPFQELTERELDVLRQVAAGKNNREIAEALFIGEKTVKTHISNILSKLHLADRTQAAVYAWQQGMM | -0.0277 |
| HMETLGADLRALRKSRGLTLLDMAESLGRSVGWLSQVERDLSDPSISDLREIAELLGVPISMLFRH | -2.86 |
| HMGFAPEAAREEVAQLIGQRGRAVTVLRPSGQVEIAGRRFEATVEVGAVDAGDTIVVRGQTAFALLVEKAD | 0.0301 |
| HMGELGPGSRGQAVRALQERLMALGFPLARFGADGIFGRETTGALRAFQHVAGLSPTGLGDHETLKWLGII | -0.935 |
| HMTAEASELRERIRAAMATLPPAQQRVIELAYFEGLTQREIAALLNEPLGTIKTRMRLGMRKLKDVL | -0.747 |
| HMAGEDPANLELMRLMDEEYMEHPTKGVLGMVDFLRALGILTGPKRVRRLLRKMGIMAIYPK | -0.0379 |
| HMKLTKPKLIQLIHIAKSKLNMDELSYRVLLDNLTGKTSTTKMTVGELLKVYESMKDKGFKPQV | -0.166 |
| HMIYQNVINLLKNRLNSSIYNIGDLLPSEKELAEHYDVSRNTLRKALKTLEEEGMIERRHGSGTYLRNK | -0.969 |
| HMRAGHDFEALKHIESSLDKHLTDEGIKIKSEKRGAIVARWYQSHVEGREVTDDDVHTWIELFF | -3.5 |
| HMGLYPYSGTPADNQEANERRIFDIYSTHLERIFSDFSGATLRTKRLVLRLMQELVHSDPVRMAGILDEL | 0.00204 |
| HMVSQKPKERELWFREQLELAGLRLDPHAISAINETLGNDTGRFPGIIDTLLSTYGAGKKLSYDDVVMFL | -0.477 |
| HMGNRWENLISNKMIDDVDEELLRKYIAQAHDAGRIAISYTDRKTVLNQLELTDGDRLLNAGKVLFSD | -0.094 |
| HMGESFEELAREISDDTGSKTEGGETGLFPRGVMAPQFEEAAFLLKVGDISEPIRTKFGYHIIKLKEIKP | -0.156 |
| HMNIEEQVVAEVLVKDFMKQLTPRDIHILELRKNGYTYQEIAGQLGYHTHSAVKKRVDRLAEQWLAYTQGH | -1.53 |
| HMKISQSRKAGKLVLESELKRGGVSLDQYRGGRMSRILELIGVKSLNELLTDLGTGKKTGALVAERFFSGL | -0.444 |
| HMEREQNIEHGRAIVERELKRLGLSDVYTIADIATALRHDDVDQFLAKIGFGDIQSTQIGGAIAALQQR | -0.0664 |
| HMLKSGSAVAQARDVILEKGVPVHINEILDALGKGDTREAKASLTSSLAAYVRRGEIFTRPAPNTFGLVEL | -0.372 |
| HMNATLEQLTQREREIAVLMAEGLTNAQIGSRLNVSMASVKAHLSHIFTKLGVDNRVSAAMMVL | -0.654 |
